The results in this text go back to publication PMC6916587, “The roles of factor Va and protein S in formation of the activated protein C/protein S/factor Va inactivation complex” (Journal of Thrombosis and Haemostasis, 2019).

The target of one experiment is T1, protein S (wild type) (UniProt P07225).
T1 sequence (chain, gamma-carboxyglutamate at 36 (printed as Gla36)): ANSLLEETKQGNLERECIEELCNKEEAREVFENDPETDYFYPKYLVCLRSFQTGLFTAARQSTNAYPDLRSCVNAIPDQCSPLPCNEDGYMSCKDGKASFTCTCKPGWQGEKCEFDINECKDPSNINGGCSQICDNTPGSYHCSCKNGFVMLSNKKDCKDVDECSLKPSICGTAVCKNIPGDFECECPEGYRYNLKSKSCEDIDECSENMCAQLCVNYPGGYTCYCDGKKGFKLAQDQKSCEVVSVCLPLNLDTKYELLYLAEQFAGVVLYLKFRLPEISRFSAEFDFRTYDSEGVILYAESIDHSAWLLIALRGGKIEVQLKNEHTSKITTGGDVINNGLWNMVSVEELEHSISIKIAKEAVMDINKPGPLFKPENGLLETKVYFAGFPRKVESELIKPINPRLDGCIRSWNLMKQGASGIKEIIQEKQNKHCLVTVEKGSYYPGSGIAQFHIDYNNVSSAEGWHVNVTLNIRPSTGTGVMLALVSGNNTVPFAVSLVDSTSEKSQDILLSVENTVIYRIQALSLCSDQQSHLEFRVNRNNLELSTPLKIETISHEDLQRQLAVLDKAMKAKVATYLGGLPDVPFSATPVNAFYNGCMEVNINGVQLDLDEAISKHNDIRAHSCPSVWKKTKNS

Experiment [1] addresses T2, β-chain-containing C4b-binding protein (C4BP), protein S-free (human, UniProt P04003 49-597; P20851 18-252).
T2 construct: source: purified from pooled fresh frozen citrated human plasma
T2 sequence (looked up) 1: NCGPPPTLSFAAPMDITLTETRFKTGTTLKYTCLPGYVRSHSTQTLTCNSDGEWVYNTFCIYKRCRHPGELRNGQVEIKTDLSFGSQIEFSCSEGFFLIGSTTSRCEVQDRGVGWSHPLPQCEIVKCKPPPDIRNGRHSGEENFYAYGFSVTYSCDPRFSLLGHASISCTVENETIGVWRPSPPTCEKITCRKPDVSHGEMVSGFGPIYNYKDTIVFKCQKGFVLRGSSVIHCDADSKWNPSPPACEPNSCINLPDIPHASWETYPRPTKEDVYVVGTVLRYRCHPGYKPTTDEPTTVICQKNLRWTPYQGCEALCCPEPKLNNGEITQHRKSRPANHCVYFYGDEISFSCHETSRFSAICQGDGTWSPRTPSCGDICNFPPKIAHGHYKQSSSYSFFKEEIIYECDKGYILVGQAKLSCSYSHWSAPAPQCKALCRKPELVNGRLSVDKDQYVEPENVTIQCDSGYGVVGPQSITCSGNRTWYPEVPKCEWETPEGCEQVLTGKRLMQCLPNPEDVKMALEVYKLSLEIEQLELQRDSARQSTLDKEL
T2 sequence (looked up) 2: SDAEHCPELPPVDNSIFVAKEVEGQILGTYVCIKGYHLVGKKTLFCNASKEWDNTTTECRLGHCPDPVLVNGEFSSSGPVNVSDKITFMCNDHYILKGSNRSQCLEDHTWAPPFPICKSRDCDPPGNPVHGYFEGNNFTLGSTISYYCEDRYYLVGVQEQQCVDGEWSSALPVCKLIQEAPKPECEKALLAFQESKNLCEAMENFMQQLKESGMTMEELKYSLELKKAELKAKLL
Briefly: flow cytometry on phospholipid-coated magnetic beads; as a2, with 200 nmol/L β-chain-containing C4BP pre-incubated with 100 nmol/L protein S and 25 nmol/L FVa for 10 min before 50 nmol/L APC-Fluor. To be noted: both partners purified.

Experiment [2] has as its target T3, activated factor V (FVa), wild type (UniProt P12259 29-737; P12259 1574-2224).
T3 construct: FVa heavy chain (A1-A2), cut from full-length recombinant FV by thrombin; FVa light chain (A3-C1-C2), cut from full-length recombinant FV by thrombin with release of the B domain; FV cDNA in vector pED from Dr Rodney Camire; also called WT FVa; factor Va
T3 sequence (looked up) 1: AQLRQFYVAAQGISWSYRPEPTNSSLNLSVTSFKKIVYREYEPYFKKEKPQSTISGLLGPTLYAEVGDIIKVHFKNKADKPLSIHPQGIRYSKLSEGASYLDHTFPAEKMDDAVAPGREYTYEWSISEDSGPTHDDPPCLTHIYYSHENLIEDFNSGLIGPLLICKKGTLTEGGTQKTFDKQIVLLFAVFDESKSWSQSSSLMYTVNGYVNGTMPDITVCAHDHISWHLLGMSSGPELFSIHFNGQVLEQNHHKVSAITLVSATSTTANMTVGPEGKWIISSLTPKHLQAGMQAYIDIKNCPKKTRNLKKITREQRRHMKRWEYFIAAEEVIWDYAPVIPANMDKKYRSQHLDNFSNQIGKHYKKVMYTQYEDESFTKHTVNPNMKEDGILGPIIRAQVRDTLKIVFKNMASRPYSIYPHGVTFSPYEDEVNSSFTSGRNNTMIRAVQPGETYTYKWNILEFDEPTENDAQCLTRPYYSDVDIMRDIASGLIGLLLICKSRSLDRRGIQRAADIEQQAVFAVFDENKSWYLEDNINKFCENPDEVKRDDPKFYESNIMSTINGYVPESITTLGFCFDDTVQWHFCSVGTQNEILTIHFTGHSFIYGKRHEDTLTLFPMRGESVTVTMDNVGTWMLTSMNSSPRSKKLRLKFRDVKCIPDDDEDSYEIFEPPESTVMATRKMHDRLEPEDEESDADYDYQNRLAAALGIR
T3 sequence (looked up) 2: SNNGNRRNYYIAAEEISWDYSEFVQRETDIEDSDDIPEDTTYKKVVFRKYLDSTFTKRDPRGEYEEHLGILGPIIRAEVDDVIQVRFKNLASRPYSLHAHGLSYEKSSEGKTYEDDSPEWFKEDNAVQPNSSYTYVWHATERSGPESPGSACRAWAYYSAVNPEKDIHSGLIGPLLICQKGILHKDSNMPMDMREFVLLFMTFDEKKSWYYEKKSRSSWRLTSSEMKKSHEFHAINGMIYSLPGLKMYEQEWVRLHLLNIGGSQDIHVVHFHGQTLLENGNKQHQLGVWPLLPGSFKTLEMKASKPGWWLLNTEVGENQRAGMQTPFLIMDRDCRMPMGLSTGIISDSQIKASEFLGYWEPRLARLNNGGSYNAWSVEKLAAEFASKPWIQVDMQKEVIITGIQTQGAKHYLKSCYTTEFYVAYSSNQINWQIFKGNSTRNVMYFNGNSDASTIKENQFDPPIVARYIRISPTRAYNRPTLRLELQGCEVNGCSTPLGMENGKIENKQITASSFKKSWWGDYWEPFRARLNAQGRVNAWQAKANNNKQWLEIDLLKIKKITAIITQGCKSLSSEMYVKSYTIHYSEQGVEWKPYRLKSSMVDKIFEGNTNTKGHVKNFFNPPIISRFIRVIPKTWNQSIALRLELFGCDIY
Described as above. To be noted: both partners purified.

For the molecule “activated factor V Nara (FVa^Nara, W1920R) (from UniProt P12259 29-737; P12259 1574-2224) (natural protein)”, in the experiment with protein S (wild type), the FVa inactivation assay (remaining FVa activity by prothrombinase assay): protein S needed for inactivation comparable to WT FVa at 3 nmol/L protein S; 0.25 nmol/L APC, 25 μmol/L phospholipids, 10 min was greater than 50 nmol/L and the FVa inactivation assay in the presence of protein S: APC (0-0.25 nmol/L) that reduces FVa activity by ~50%; 25 μmol/L phospholipids, 10 min was greater than 50 pmol/L.

B1: protein S (wild type) (natural protein, UniProt P07225 42-676, looked up)
chain: T1 sequence (chain, gamma-carboxyglutamate at 36 (printed as Gla36))
modifications: gamma-carboxyglutamate at 36 (printed as Gla36)
notes: protein S, wild type; also called WT protein S; PS; source: HEK293 cells, stably transfected, purified (barium citrate precipitation, anion exchange chromatography)
B1: the binding result in experiment [1] and in experiment [2] was “binds” throughout.
